“Also recorded” adds a separate entry of the source. Ends that are not written are not given here. * marks the point of attachment. Pent4ynoyl = C#CCCC(=O)*
Legend:
PSMA on LNCaP cells = biological target: T1, PSMA on LNCaP cells (Homo sapiens, UniProt Q04609); assay: Cell-based phage ELISA, recognition of cell surface PSMA by PEGylated ligands on phage; details: for binding affinity for cell surface PSMA: PEGylated ligand 2 variants, specific/non-specific attachment, with/without PEG4 linker, FIG. 5A; for binding affinity of dual ligand combinations: 2:1 dual ligand combinations on phage, FIG. 5B
T1 construct: endogenous in cells; host or cells: LNCaP (also LNCaP CSS), glutaraldehyde-fixed on Maxisorp plates
Method: Day 1: The cell-based ELISA was performed as previously described by Watanabe et. al. with the following modifications. Cells were detached with Trypsin-EDTA, resuspended in PBS, and then collected by centrifuging at 1200 rpm for 5 min. The cells were further washed with PBS and then concentrated as in the previous step. The concentration of the cells was adjusted to 4.5×10^6 cells/mL in PBS using a hemocytometer, and 100 μL was aliquoted to specific wells of a 96-well microtiter plate (Maxisorp plates from Nunc). The Maxisorp plates used here have a high protein-binding capacity. Thus, the plates can be used to run assays with either the cells or the phage immobilized in the wells. Next, 50 μL of a 0.15% glutaraldehyde in PBS solution was added to the wells at 4° C., and the solution was gently mixed by pipetting. The ELISA plate was then centrifuged at 1200 rpm for 10 min at 4° C., followed by overnight incubation at 4° C.
Day 2: The cell solution was gently removed, and the wells were blocked with 200 μL/well of blocking buffer containing 100 mM glycine, 1% gelatin and 0.1% w/v BSA (bovine serum albumin) in PBS. The plate was incubated overnight (˜20-22 h) at room temperature.
Separately, phage were prepared before attachment to PEG and PEGylated ligands. Phage (10 nM in 100 μL of PBS) and 1 μL of K14-alkyne (525 μM in water) were thoroughly mixed by pipetting ˜25 times. For phage wrapped with PEGylated ligands, phage were mixed with 0.75 μL of K14-Cys (525 μM in water). For mixed wrapping on the phage surface, 0.5 μL of K14-alkyne was pre-mixed with 0.75 μL of K14-Cys, and then mixed with 100 μL of 10 nM phage. The solution was shaken at room temperature for 15 min on an orbital shaker. Next, 2 μL of PEGylated ligand (625 μM in water) was added to the appropriate wells. For the dual ligand combinations, the PEGylated ligands were pre-mixed in the desired ratio (a 2:1 molar ratio for example), and then 2 μL of the mixture was added to the appropriate wells. The solutions were gently mixed by pipetting, and incubated overnight at 4° C.
Day 3: Next, the click reaction was performed, as previously described, but with the following modifications. To buffer the pH, triethylammonium acetate was added to a final concentration of 50 mM, followed by the addition of 1.5 μL of 1 mM azide-functionalized PEG. The solutions were mixed by pipetting. Next, ascorbic acid was added to a final concentration of 1 mM and the solutions were mixed by gently pipetting. Then, copper sulfate was added to a final concentration of 1.5 mM, followed by pipetting to mix the solutions. Water was added to the other wells to maintain consistent phage concentrations. The plate was incubated at room temperature for 30 min.
The wells of the ELISA plate were then incubated with the phage samples. The blocking buffer was removed and the wells were gently washed two times with PBS. Next, the phage solution was added to the respective wells and incubated for 45 min. The phage solution was removed, and the wells were washed three times with 300 μL/well of wash buffer PT (0.05% Tween-20 in PBS), once with PBS, and then incubated with horseradish peroxidase-conjugated anti-M13 antibody (100 μL/well, 1:5000 dilution in PBS) for 40 min. The wells were washed three times with PT and once with PBS. The plate was then developed by incubating with HRP substrate solution (100 μL/well; 1 mg/mL o-phenylenediamine dihydrochloride and 0.02% w/v H2O2) in citric acid buffer (50 mM citric acid, 50 mM Na2HPO4, pH 5.0). The HRP activity was measured spectrophotometrically at 450 nm using a microtiter plate reader (Bio-Tek). The absorbance at 630 nm was subtracted from the absorbance at 450 nm to eliminate background.

PSMA = biological target: T2, PSMA (Homo sapiens, UniProt Q04609); details: genetically encoded, phage-displayed ligands [4,10]; cited from earlier work
T2 construct: The effective detection of PSMA shed by LNCaP cells, in androgen sensitive and androgen independent cells; endogenous in cells; host or cells: culture supernatant of LNCaP and LNCaP CSS cells

[1] = Dynamic light scattering (DLS) size measurement; type: physicochemical
Method: For determination of size, 1 mL of each sample was measured at the same concentration as used for the biological assay. Each sample was measured at least three times at 25° C., with each individual size measurement being the average of 10 runs.

T1 sequence (Q04609 whole entry): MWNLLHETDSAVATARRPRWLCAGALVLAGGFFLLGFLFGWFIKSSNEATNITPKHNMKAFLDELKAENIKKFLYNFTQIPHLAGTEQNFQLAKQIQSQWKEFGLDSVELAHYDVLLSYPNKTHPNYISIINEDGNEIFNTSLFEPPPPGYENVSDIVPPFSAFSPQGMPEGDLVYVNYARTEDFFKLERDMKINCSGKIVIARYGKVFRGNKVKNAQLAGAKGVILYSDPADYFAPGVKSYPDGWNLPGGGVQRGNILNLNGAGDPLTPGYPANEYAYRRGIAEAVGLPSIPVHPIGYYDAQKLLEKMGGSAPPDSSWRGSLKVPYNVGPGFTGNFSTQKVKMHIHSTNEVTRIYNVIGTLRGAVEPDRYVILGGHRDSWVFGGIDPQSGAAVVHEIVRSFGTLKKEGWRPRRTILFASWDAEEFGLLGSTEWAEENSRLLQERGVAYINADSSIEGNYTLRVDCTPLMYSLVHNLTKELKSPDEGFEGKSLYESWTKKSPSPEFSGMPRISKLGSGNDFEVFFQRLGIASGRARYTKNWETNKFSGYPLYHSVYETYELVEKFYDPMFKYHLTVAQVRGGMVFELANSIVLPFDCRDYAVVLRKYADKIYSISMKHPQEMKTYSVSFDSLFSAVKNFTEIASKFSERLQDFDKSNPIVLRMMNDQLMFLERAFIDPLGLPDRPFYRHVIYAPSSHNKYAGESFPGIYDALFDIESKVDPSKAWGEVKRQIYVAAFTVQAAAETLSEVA
T2 sequence (Q04609 whole entry): as above

## P100SP-2: PEG100, specific attachment to ligand 2; bioconjugated to phage wrapped with K14-Cys (SECVEVFQNSCDW-NH2; not fully specified; cysteine pairing not given here; also: specific N-terminal attachment to Mal-PEG100 via triazole)
PSMA on LNCaP cells
  binding affinity for cell surface PSMA: higher binding affinity for cell surface PSMA than P100NSP-2

## P100SP-P4-2+P100SP-P4-1: phage wrapped with dual ligand combination in a 2:1 ratio, specific attachment with PEG4 linker (peptide 1 SECVEVFQNSCDW-NH2; peptide 2 CALCEFLG-NH2; not fully specified (N-terminus); cysteine pairing not given here; also: mixture of two PEG100 conjugates (ligand 2 and ligand 1, 2:1) with PEG4 linker, specific N-terminal triazole attachment)
PSMA on LNCaP cells; LNCaP cells
  binding affinity of dual ligand combinations: significant increase in binding affinity

## SECVEVFQNSCDW [ligand-2]
PSMA
  higher affinity to PSMA than ligand-1: > 100 fold

## PEGylated oligolysine: K14-alkyne pre-conjugated to azide PEG7, 22 or 45 by click reaction, then applied to phage (Pent4ynoyl-KKKKKKKKKKKKKK-NH2; also: alkyne click-conjugated (triazole) to azide PEG7, 22 or 45)
[1]; DLS, phage treated with pre-formed PEGylated oligolysine (data not shown)
  change in the cross-sectional diameter of the treated phage: no significant change

## P100NSP-2+P100NSP-1: phage wrapped with 2:1 dual ligand combination of P100NSP-2 and P100NSP-1 (peptide 1 SECVEVFQNSCDW; peptide 2 CALCEFLG)
PSMA on LNCaP cells; LNCaP cells
  binding affinity of dual ligand combinations: only a modest improvement
PSMA on LNCaP cells; different ratios of the two PEGylated, phage-wrapped ligands, FIG. 4
  recognition of PSMA on LNCaP cells: maximize the recognition of PSMA on LNCaP cells

## P100SP-P4-2: PEG100, specific attachment, PEG4 linker, ligand 2; on phage wrapped with K14-Cys (SECVEVFQNSCDW-NH2; not fully specified (N-terminus); cysteine pairing not given here; also: PEG100, specific attachment, PEG4 linker)
PSMA on LNCaP cells
  binding affinity for cell surface PSMA: most effective architecture
[1]; DLS backscatter mode, relative to previous wrapping step, FIGS. 3A-3B
  increase in cross-sectional diameter: 10 nm

## K14-Cys: oligolysine (K14) peptide with cysteine, wraps the phage, SEQ ID NO:2 (KKKKKKKKKKKKKKC; not fully specified (C-terminus))
[1]; DLS backscatter mode, scattering angle 173°, FIG. 3A
  average cross-sectional diameter: 50.0 nm

## K14-alkyne: alkyne-functionalized oligolysine (K14) peptide that wraps the phage, SEQ ID NO:1 (Pent4ynoyl-KKKKKKKKKKKKKK-NH2; SMILES C#CCCC(=O)N[C@@H](CCCCN)C(=O)N[C@@H](CCCCN)C(=O)N[C@@H](CCCCN)C(=O)N[C@@H](CCCCN)C(=O)N[C@@H](CCCCN)C(=O)N[C@@H](CCCCN)C(=O)N[C@@H](CCCCN)C(=O)N[C@@H](CCCCN)C(=O)N[C@@H](CCCCN)C(=O)N[C@@H](CCCCN)C(=O)N[C@@H](CCCCN)C(=O)N[C@@H](CCCCN)C(=O)N[C@@H](CCCCN)C(=O)N[C@@H](CCCCN)C(N)=O)
PSMA on LNCaP cells; dual ligand combination P100SP-P4-2+P100SP-P4-1 with or without spacers, LNCaP cells, FIG. 6
  PSMA recognition / binding affinity with PEG spacers: no effect on binding affinity

## P100NSP-P4-2+P100NSP-P4-1: phage wrapped with dual ligand combination, non-specific attachment with PEG4 linker (peptide 1 SECVEVFQNSCDW-NH2; peptide 2 CALCEFLG-NH2; not fully specified (N-terminus); cysteine pairing not given here; also: PEG100 non-specific attachment with PEG4 linker)
PSMA on LNCaP cells; LNCaP cells
  binding affinity of dual ligand combinations: drop in affinity; also recorded: affinity equivalent to P100NSP-P4-2

## P100NSP-2: PEG100, non-specific attachment to ligand 2; bioconjugated to phage wrapped with K14-Cys (SECVEVFQNSCDW-NH2; not fully specified (N-terminus); cysteine pairing not given here; also: PEG100 attached non-specifically)
PSMA on LNCaP cells; phage wrapped with K14-Cys and individual PEGylated ligand, FIG. 14
  binding affinity for LNCaP cells: higher affinity for LNCaP cells compared to P100NSP-1

Source: patent US20170097353A1, “Polymer Viral Compositions” (The Regents of the University of California, priority 2015, published 2017)
